Like-named read-outs stand apart in the source and are kept apart here. Some results are limits rather than exact numbers.

The target in assay [1] is fibrin (human) (UniProt P02679). The assay is described as follows: co-sedimentation.
For assay [2] the target is unchanged. The assay can be described thus: co-sedimentation. The source holds these as a separate data set.
Assay [3] shares this target. The assay can be described thus: depletion on clotting, ELISA of plasma against the serum made from it.
The target is the same in assay [4]. The assay can be described thus: radioligand binding.

For plasminogen (natural protein), the percent bound after 16 h, after 5 M urea wash (Table 1) with fibrin (human) [1] came to 31%.

Consider “factor H (from UniProt P08603 19-1231) (natural protein)”, for which, in the assay with fibrin (human) [1], the fold increase of percent bound, enhanced against normal clots, at 140 mM NaCl stood at 6 fold; the percent bound after 16 h, after 5 M urea wash (Table 1) came to 30%; the percent bound at 30 min, after 5 M urea wash came to 13%; the percent bound at 30 min, non-denaturing wash was found to be 22%. In addition, in the assay with fibrin (human) [1], the percent bound at 96 min, after 5 M urea wash stood at 18%; the percent bound at 96 min, non-denaturing wash came to 26%; the percent bound at 960 min, after 5 M urea wash turned out to be 32.5%; the percent bound to enhanced plasma clots, 40 min, HEPES-½-saline wash came to 21.5%. In the assay with fibrin (human) [1], the percent bound to fibrin-only-clots, HEPES-½-saline wash stood at 19% and the percent bound to plasma clots at 70 mM salt was 21.5%. In the assay with fibrin (human) [2], this substance yielded a percent bound at 96 min, non-denaturing wash of 25%. The percent of the plasma level lost in the serum (healthy volunteer) with fibrin (human) [3] was 38%. Further, in the assay with fibrin (human) [4], the Kd turned out to be 0.055 nM, the binding at 75 mM NaCl as percent of that at 20 mM NaCl was less than 50%, the percent of input bound (500,000 cpm/well) is 1.7% and the percent of input bound at saturation (input 3.5 μg) stood at 0.1%.

Usually Kd stands for a measure of binding affinity in units of concentration. Read a low Kd as a tighter complex.

(Values after publication doi:10.1101/2023.10.19.563203.)
